Results on two molecules are retold here after PMC11840927, “Frataxin Traps Low Abundance Quaternary Structure to Stimulate Human Fe–S Cluster Biosynthesis” (Biochemistry, 2025).

Assay [1] concerns the target SDAec complex with the Q64S, P299H, L300Q NFS1 triple variant (human | Escherichia coli) (UniProt Q9Y697).
Assay [2] addresses T1, NFS1(Δ1–55) with N-terminal His6 tag (human, UniProt Q9Y697 56-457, covalently attached PLP).
T1 construct: NFS1, human cysteine desulfurase, Δ1–55 (residues 56 to the C-terminus); The NFS1 chain of m1; also called α subunit; source: recombinant, co-purified within the SDAec complex; not shown: His6, N-terminal, kept
Put plainly: native MS; protomer exchange: 1:1 mix of 15N- and 14N-labelled SDAec (or His-tagged and untagged IscS), room temperature, 200 mM ammonium acetate pH 8.5, EMR Orbitrap; ratio of exchanged dimer to the sum of unexchanged dimers; α2β2γ2 (or IscS dimer) to protomers and back. As to conditions: both partners purified.

In assay [1], “FXN (Δ1–81) (from UniProt Q16595 82-210) (natural protein)” displayed an FXN-stimulated cysteine desulfurase activity (μM S^2–/min·μM NFS1) of 8.

B1: Escherichia coli acyl-carrier protein (natural protein)
chain: MSTIEERVKKIIGEQLGVKQEEVTNNASFVEDLGADSLDTVELVMALEEEFDTEIPDEEAEKITTVQAAIDYINGHQA
modifications: acyl-4′PPT (assumed mass 523 Da)
notes: Escherichia coli acyl-carrier protein (ACPec) associated with NFS1-ISD11; The ACP chain of m1; also called ACPec; ACP; source: co-purified within the SDAec complex
On to B1, for which the binding result in assay [2] is given as “binds”.
